The source of these data is article PMC3816987.

The target in assay [1] is GST fusion protein of Tulp1-N (1M-298Q) (mouse) (UniProt Q9Z273). The assay can be described thus: phage binding assay.
The target in assay [2] is GST-free tubby-N (tubby N-terminus, 1M-242P) (mouse) (UniProt P50586). The assay can be described thus: phage binding assay.
GST-free tubby-N (tubby N-terminus, 1M-242P) (mouse), sequence (P50586 1-242): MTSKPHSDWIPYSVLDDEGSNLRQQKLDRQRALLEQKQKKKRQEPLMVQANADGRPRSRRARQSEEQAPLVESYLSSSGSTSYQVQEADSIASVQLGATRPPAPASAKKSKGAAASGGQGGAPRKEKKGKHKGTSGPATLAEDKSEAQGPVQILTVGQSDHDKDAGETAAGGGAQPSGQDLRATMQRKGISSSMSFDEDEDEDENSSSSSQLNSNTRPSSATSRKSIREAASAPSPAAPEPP

GST fusion protein of Tulp1-N (1M-298Q) (mouse), sequence (Q9Z273 1-298): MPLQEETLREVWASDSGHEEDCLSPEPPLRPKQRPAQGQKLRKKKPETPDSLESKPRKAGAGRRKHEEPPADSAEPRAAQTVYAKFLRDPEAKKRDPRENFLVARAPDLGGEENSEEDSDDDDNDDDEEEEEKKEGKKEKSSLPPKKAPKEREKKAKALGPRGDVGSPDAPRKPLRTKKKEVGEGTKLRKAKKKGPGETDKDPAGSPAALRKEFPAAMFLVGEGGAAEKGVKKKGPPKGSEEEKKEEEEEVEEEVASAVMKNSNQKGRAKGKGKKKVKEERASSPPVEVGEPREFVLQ
ATP-binding cassette F1 (Abcf1) phage clone, 57K-196G, sequence (Q6P542 whole entry, the tested form may be a part): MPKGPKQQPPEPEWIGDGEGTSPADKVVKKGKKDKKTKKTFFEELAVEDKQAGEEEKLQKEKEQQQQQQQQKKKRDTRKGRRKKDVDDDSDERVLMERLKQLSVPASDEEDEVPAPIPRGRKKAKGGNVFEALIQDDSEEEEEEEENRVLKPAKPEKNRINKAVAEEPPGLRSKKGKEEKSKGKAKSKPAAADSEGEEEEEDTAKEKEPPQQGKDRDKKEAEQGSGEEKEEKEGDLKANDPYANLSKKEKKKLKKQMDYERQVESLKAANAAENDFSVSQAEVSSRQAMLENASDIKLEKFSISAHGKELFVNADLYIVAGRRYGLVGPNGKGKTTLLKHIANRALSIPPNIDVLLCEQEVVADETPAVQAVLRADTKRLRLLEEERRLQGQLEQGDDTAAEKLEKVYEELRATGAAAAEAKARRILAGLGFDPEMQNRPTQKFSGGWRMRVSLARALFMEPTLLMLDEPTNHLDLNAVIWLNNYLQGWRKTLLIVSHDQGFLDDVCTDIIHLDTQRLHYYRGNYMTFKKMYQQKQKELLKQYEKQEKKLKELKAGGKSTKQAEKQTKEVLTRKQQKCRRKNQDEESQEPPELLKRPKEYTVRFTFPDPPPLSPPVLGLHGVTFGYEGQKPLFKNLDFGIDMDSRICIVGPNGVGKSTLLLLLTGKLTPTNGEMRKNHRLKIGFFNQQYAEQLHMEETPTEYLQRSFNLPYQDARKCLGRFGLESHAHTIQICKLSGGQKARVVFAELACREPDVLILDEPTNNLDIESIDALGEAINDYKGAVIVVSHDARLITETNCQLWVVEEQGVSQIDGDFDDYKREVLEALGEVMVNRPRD
Structure specific recognition protein 1 (Ssrp1) phage clone, 486E-619G, sequence (Q08943 2-708): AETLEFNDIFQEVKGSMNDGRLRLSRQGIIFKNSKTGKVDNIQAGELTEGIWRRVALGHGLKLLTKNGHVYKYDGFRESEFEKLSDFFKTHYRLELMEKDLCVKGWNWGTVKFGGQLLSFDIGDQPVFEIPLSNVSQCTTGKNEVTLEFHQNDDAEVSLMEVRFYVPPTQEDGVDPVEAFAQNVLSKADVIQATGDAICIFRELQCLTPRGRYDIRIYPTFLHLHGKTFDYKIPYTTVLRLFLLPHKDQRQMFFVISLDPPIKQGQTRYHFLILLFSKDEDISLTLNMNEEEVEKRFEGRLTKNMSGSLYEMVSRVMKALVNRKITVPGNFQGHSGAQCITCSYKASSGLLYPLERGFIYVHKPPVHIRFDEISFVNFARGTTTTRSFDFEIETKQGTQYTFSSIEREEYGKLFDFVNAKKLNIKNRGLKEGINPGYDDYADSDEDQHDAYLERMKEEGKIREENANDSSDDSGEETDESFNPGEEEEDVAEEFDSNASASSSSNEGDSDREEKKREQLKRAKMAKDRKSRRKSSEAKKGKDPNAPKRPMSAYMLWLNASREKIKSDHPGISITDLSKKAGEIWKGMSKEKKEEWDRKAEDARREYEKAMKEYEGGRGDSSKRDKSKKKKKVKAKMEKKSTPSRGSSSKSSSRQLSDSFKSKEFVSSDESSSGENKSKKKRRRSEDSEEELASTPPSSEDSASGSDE
Zinc finger E-box binding homeobox 1 (Zeb1) phage clone, 903E-1021E, sequence (Q64318 whole entry, the tested form may be a part): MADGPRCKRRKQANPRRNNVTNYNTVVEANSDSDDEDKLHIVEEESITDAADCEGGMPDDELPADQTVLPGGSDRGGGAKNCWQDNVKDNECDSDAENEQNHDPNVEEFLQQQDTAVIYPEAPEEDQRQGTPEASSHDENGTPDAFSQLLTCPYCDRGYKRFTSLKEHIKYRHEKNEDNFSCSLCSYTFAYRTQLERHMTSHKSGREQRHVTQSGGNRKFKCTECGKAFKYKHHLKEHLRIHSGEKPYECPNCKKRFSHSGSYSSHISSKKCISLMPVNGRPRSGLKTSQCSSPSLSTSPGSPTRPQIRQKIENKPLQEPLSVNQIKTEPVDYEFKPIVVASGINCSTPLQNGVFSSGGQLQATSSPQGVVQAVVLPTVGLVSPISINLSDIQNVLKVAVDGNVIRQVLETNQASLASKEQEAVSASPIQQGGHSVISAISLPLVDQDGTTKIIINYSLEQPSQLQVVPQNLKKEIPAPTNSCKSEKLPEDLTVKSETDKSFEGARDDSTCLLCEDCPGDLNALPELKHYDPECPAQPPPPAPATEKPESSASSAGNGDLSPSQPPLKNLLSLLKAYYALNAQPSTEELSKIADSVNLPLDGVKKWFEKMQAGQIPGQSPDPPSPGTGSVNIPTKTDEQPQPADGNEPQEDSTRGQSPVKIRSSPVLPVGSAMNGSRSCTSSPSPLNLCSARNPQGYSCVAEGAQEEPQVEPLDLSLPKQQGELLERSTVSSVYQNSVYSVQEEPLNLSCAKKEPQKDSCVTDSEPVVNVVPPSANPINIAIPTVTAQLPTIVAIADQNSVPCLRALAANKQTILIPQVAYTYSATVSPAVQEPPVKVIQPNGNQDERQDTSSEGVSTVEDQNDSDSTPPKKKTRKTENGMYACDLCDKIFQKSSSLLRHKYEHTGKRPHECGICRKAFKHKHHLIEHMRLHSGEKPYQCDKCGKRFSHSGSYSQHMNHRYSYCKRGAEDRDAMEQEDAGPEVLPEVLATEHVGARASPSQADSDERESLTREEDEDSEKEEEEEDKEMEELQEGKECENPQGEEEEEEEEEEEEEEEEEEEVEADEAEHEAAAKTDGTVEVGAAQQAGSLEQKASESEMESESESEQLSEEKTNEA
High mobility group (Hmg) box 2 (Hmgb2) phage clone, 89K-188E, sequence (P30681 whole entry, the tested form may be a part): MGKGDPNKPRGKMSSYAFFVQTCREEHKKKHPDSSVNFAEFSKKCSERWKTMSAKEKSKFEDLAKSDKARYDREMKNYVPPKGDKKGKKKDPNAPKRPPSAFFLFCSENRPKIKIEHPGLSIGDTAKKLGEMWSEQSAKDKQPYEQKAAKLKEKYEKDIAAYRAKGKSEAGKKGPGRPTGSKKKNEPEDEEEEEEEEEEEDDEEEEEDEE
Hmg. nucleosomal binding domain 1 (Hmgn1) phage clone, 1M-49K, sequence (P18608 2-96): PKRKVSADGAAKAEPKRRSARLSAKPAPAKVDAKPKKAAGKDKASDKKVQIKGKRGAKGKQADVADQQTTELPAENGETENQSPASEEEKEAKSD
Zinc finger protein 609 (Zfp609) phage clone, 1M-183E (domain or fragment), sequence (Q8BZ47 whole entry, the tested form may be a part): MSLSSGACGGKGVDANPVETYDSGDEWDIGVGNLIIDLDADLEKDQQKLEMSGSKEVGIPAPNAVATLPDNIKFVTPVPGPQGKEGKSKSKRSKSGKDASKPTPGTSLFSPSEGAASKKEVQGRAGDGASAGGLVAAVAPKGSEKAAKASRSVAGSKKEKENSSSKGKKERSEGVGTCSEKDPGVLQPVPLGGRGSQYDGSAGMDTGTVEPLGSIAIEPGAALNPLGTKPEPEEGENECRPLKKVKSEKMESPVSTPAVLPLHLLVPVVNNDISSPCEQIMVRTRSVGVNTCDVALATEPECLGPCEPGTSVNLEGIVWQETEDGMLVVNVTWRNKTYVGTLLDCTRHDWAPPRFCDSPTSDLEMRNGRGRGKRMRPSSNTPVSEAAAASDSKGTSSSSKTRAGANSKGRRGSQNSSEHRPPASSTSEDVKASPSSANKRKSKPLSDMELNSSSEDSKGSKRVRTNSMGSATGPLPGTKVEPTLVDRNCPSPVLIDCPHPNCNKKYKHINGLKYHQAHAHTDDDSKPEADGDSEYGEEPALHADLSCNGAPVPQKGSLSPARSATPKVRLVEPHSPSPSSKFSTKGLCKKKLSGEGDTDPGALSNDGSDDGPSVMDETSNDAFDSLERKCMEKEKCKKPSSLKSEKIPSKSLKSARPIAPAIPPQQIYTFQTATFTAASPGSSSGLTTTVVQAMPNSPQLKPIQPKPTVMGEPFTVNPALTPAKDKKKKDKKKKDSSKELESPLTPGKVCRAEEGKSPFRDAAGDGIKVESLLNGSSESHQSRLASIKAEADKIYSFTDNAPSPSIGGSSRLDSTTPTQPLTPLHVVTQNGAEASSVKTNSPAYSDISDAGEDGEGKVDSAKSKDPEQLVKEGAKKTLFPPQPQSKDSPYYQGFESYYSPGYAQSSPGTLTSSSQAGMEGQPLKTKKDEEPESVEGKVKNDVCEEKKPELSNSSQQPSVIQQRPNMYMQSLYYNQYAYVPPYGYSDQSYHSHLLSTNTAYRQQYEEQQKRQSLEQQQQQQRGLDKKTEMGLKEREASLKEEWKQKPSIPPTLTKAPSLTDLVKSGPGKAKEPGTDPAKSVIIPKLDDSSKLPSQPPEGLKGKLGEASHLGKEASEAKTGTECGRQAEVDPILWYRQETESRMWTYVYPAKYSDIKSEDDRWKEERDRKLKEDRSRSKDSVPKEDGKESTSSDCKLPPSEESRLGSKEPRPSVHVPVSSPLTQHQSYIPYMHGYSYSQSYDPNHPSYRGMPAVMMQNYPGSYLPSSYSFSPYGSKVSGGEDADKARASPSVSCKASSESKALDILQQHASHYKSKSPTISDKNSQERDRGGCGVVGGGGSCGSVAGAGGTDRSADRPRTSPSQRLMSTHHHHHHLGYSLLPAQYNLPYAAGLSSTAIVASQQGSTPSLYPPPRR

In the case of “ATP-binding cassette F1 (Abcf1) phage clone, 57K-196G (from UniProt Q6P542 57-196) (domain or fragment)”, the values for the binding specificity, clonal phage vs. control phage in assay [1] and in assay [2] were 33.4 X and 68.2 X, respectively.
In the case of “Armadillo repeat containing, X-linked 4 phage clone, 419S-587N (domain or fragment)”, the binding specificity, clonal phage vs. control phage in assay [2] was determined as 40.1 X.
On to “High mobility group (Hmg) box 2 (Hmgb2) phage clone, 89K-188E (from UniProt P30681 89-188) (domain or fragment)”, for which the binding specificity, clonal phage vs. control phage came out at 55.2 X in assay [1] and 312 X in assay [2].
Turning to “Hmg. box 2-like 1 (Hmgb2l1) phage clone, 170K-305G (domain or fragment)”, in assay [2], the binding specificity, clonal phage vs. control phage was determined as 29.8 X.
On the same count and under the same terms, then “Hmg. nucleosomal binding domain 1 (Hmgn1) phage clone, 1M-49K (from UniProt P18608 1-49) (domain or fragment)”, with 61.4 X; and “Microtubule-associated protein 7 (Mtap7) phage clone, 23A-114R (from UniProt O88735 23-114) (domain or fragment)”, with 3.5 X.
As to “PC4 and SFRS1 interacting protein 1 (Psip1) phage clone, 152K-219K (from UniProt Q99JF8-1 152-219) (domain or fragment)”, the values for the binding specificity, clonal phage vs. control phage in assay [1] and in assay [2] were 24.1 X and 196 X, respectively.
In the case of “Structure specific recognition protein 1 (Ssrp1) phage clone, 486E-619G (from UniProt Q08943-1 486-619) (domain or fragment)”, the results for the binding specificity, clonal phage vs. control phage in assay [1] and in assay [2] were 39.7 X and 157 X, respectively.
Take “Zinc finger E-box binding homeobox 1 (Zeb1) phage clone, 903E-1021E (from UniProt Q64318 903-1021) (domain or fragment)”: the results for the binding specificity, clonal phage vs. control phage in assay [1] and in assay [2] were 56.7 X and 284 X, respectively.
“Zinc finger protein 609 (Zfp609) phage clone, 1M-183E (domain or fragment)”: in assay [2], the binding specificity, clonal phage vs. control phage worked out at 53.2 X.
